Laboratory results taken from patent publication US8367060B2, “Pharmaceutical composition containing arazyme for the prevention of liver dysfunction” (Insect Biotech Co., Ltd., priority 2006, dated 2013).
Entries after “also recorded” stand apart in the source; their conditions may differ.

Legend:
[1] = system: rats; test: Acute toxicity test of arazyme, single oral administration; format: in vivo, Wistar rats; conditions: female rats, oral 1250, 2500 and 5000 mg/kg once
Method: The following experiments were performed to see if arazyme has acute toxicity in rats.
9-week old SPF (specific pathogen-free) Wistar line rats (Orient, Co., Seoul, Korea) were raised in an animal facility (4 groups, 4 rats per group) where temperature was regulated to 22±3° C., humidity was adjusted to 55±10% and light was also regulated to 12L/12D. The rats were quarantined and adapted for one week before being used. During the whole experiment period, the rats were raised in polycarbonate cages [240 W×390 L×175 H (mm)] by up to 5 per cage. Skin mark using an oil magic pen and individual identification card were used for distinguishment. Feed for laboratory animals (PMI Nutrition International, USA) was provided at any time after being sterilized. Tap water was provided using a water bottle at any time after being purified by a carbon filter.
Arazyme of the invention was dissolved in distilled water for injection at the concentrations of 0, 1250, 2500 and 5000 mg/kg, and 10 ml/kg of each arazyme solution was orally administered once to rats using zonde. After one week-adaptation, the rats were divided into four groups. Different concentrations of arazyme were administered to rats at 10 weeks, and general symptoms were checked. To evaluate toxicity of arazyme to organs, autopsy was performed 24 hours after the administration.
After oral-administration of arazyme to female rats, any symptom according to the administration was investigated and behavior, appearance and biological functions of rats were also observed to evaluate toxicity.

[2] = system: P-smad3; test: Immunohistochemical observation of P-smad3 expression in liver cells; format: in vivo, mice; conditions: for P-smad3 immune response (immunohistochemistry): 100 mg/kg oral before CCl4, 100 mg/kg
[3] = system: liver cells; test: Histopathological observation on liver cells (H&E) in CCl4-induced acute liver injury; format: in vivo, mice; conditions: for necrosis in liver cells: 100 mg/kg oral one day before CCl4 0.4 ml/kg i.p., autopsy 24 hours after CCl4
From the text: In the present invention, male wild type C57BL/6(WT) at 12 weeks and SMP30 knock-out C57BL/6(KO) mice were used to induce liver injury by CCl4 and then the relation of SMP30 with arazyme was investigated. 10 male and 20 female SMP30 knock-out C57BL/6 mice were distributed from Tokyo Metropolitan Institute of Gerontology, which were then raised in the animal laboratory at Department of Pathology, College of Veterinary Medicine, Kyungpook National University, Korea. Among F1 mice generated by breeding, knock-out mice were selected by tail DNA genotyping by PCR.
Wild type mice were quarantined and adapted for 7 days in the animal laboratory. During the adaptation, every symptom was checked and only healthy animals were selected. Both wild type and SMP30 knock-out mice were 12 weeks old, excluding the difference in age.
Rats were adapted and raised in an animal facility where temperature was regulated to 22±3° C., humidity was adjusted to 55±10% and light was also regulated to 12L/12D (08:00 lights on, 20:00 lights out). The environmental conditions were checked regularly (every three months). After environmental evaluation, no changes in important conditions were recognized. During the whole experiment period, rats were raised in polycarbonate cages [240 W×390 L×175 H (mm)] by up to 5 per cage. Skin mark using an oil magic pen and individual identification card were used for distinguishment. Feed for laboratory animals (PMI Nutrition International, 505 North 4th Street Richmond, in 47374, USA) was provided at any time after being sterilized by irradiation (13.2 kGy). Tap water was provided using a water bottle at any time after being purified by a carbon filter. Carbon tetrachloride was diluted in olive oil at the concentration of 0.4 ml/kg and administered to […] once to induce liver injury. 24 hours after the administration, autopsy was performed.
Wild type mice and SMP30 knock-out mice were divided, by 5 of each, into negative control groups (G1, G5), positive control groups (G2, G6), two of experimental group 1 (G3, G7) and two of experimental group 2 (G4, G8) (Table 1). Intraperitoneal administration of olive oil was performed once to negative control mice (G1, G5), while intraperitoneal administration of CCl4 (0.4 ml/kg) was performed once to positive control mice (G2, G6). In the meantime, 100 mg/kg of vitamin C dissolved in tap water was orally administered to experimental group 1 mice (G3, G7) one day before the intraperitoneal administration of CCl4 (0.4 ml/kg). 100 mg/kg of arazyme dissolved in tap water was orally administered to experimental group 2 mice (G4, G8) one day before the intraperitoneal administration of CCl4 (0.4 ml/kg). […]

[4] = system: SMP30; test: Expression of SMP30 in liver cells by immunoblotting; format: in vivo; conditions: wild type mice; 100 mg/kg oral before CCl4; compared with CCl4 only (G2)
Method: (§1) Wild type mice and SMP30 knock-out mice were divided, by 5 of each, into negative control groups (G1, G5), positive control groups (G2, G6), two of experimental group 1 (G3, G7) and two of experimental group 2 (G4, G8) (Table 1). Intraperitoneal administration of olive oil was performed once to negative control mice (G1, G5), while intraperitoneal administration of CCl4 (0.4 ml/kg) was performed once to positive control mice (G2, G6). In the meantime, 100 mg/kg of vitamin C dissolved in tap water was orally administered to experimental group 1 mice (G3, G7) one day before the intraperitoneal administration of CCl4 (0.4 ml/kg). 100 mg/kg of arazyme dissolved in tap water was orally administered to experimental group 2 mice (G4, G8) one day before the intraperitoneal administration of CCl4 (0.4 ml/kg). 24 hours after the administration of CCl4, autopsy was performed in every mouse and samples were taken from each mouse for histopathological test.
(§2) The expression of SMP30 in liver cells was investigated by immunoblotting. First, the liver tissues frozen at −70° C. were homogenized in RIPA buffer containing 0.1 mM sodium orthovandate (Na3VO4) and protease inhibitor cocktail tablet (Roche, Mannheim, Germany). […] Protein concentration was measured by Bradford method and each protein sample proceeded onto 10% SDS-polyacrylamide gel at the concentration of 80 µg/well, followed by electrophoresis. […]

[5] = system: SMP30; test: Immunohistochemical observation of SMP30 in liver cells; format: in vivo; conditions: wild type mice, 100 mg/kg oral before CCl4, compared with CCl4 alone
Method: as §1
To observe SMP30 in liver cells immunohistochemically, paraffin embedded tissues fixed with formalin were cut into 4 μm thick sections, followed by deparaffinization. To inhibit the activity of endogenous peroxidase, the sections were treated in 3% H2O2 for 30 minutes and washed with 0.01 M PBS. To increase antigen expression of the tissues, the sections were treated with 0.01 M citrate buffer, followed by heat treatment using microwave. […]

[6] = system: P-smad3; test: Expression of P-smad3 in liver cells by immunoblotting; format: in vivo; conditions: SMP30 knock-out mice; compared with CCl4 alone (G6)
Method: as §1, §2

[7] = autopsy 24 hours after administration

B1: arazyme: novel protease produced by Aranicola proteolyticus HY-3 (KCTC 0268BP); 51.5 kDa monomer; polypeptide sequence SEQ ID NO: 1 (protein, listed as Aranicola proteolyticus)
chain: MQSTKKAIEITESSLAAASSAYNAVDDLLHYHERGNGIQVNGKDSFSTEQAGLFITRENQTWNGYKVFGQPVKLTFSFPDYKFSSTNVAGDTGLSKFSAEQQQQAKLSLQSWSDVANITFTEVGAGQKANITFGNYSQDRPGHYDYDTQAYAFLPNTIYQGQNLGGQTWYNVNQSNVKHPASEDYGRQTFTHEIGHALGLSHPGDYNAGEGNPTYRDASYAEDTREFSLMSYWSETNTGGDNGGHYAAAPLLDDISAIQHLYGANQTTRTGDTVYGFNSNTGRDFLSTTSNPQKVIFAAWDAGGNDTFDFSGYTANQRINLNEKSFSDVGGLKGNVSIAAGVTIENAIGGSGNDVIVGNAANNVLKGGAGNDVLFGGGGADELWGGAGKDTFVFSAVSDSAPGASDWIKDFQKGIDKIDLSFFNQGAQGGDQIHFVDHFSGAAGEALLSYNASNNVSDLALNIGGHQAPDILVKIVGQVDVATDFIV
modifications: BINDING (192)..(192) Zn binding site
**Q.** For B1, which “appearance (hair coat, periocular region, ears, genitalia, limbs, tail)” value [1] is on record?
**A.** The value was “no changes”.

**Q.** And the “biological functions (respiration, salivation, feces, emesis)” value [1]?
**A.** Its value is “no abnormal symptoms were found”.

**Q.** And the “symptoms in relation to motion, walking, temper and convulsions” value [1]?
**A.** The value was “no specific symptoms”.

**Q.** What about the “autopsy with naked eyes, organs” value [1, 7] of the same molecule?
**A.** Its value is “did not cause any abnormal symptom or disorder in every organ”.

**Q.** And the “microscopic observation of organs (liver, heart, lung, spleen)” value [1, 7]?
**A.** The value was “No pathological changes were observed”.

**Q.** And the “autopsy with naked eyes, organs” value ([1]; autopsy 24 hours after administration, listed as Arazyme)?
**A.** The value was “no abnormal symptoms were observed”.

**Q.** What about the “P-smad3 expression, arazyme groups compared with vitamin C groups” value ([2]; G4, G8 versus G3, G7, wild type and SMP30 knock-out mice) of the same molecule?
**A.** Its value is “lower”.

**Q.** What about the “P-smad3 immune response (immunohistochemistry)” value ([2]; SMP30 knock-out mice, G6, G7 compared with G8) of the same molecule?
**A.** The value was “strongly detected in the groups treated with CCl4 alone or together with vitamin C (G6, G7), compared with the group (G8) treated with arazyme”.

**Q.** What about the “P-smad3 immune response (immunohistochemistry)” value ([2]; wild type mice, compared with CCl4 only (G2)) of the same molecule?
**A.** The value was “strong immune response against P-smad3 was detected in group 2 (G2) treated with CCl4 only, compared with the groups (G3, G4) treated with vitamin C and arazyme; also recorded: strongly observed in CCl4 treated group (G2), compared with the groups treated with vitamin C and arazyme (G3, G4)”.

**Q.** And the “necrosis in liver cells” value ([3]; SMP30 knock-out C57BL/6 mice)?
**A.** Its value is “significantly inhibited”.

**Q.** And the “injury in liver cells around central vein region” value ([3]; arazyme treated group, CCl4 liver injury)?
**A.** Its value is “only weak injury”.

**Q.** What about the “necrosis in liver cells” value ([3]; wild type C57BL/6 mice) of the same molecule?
**A.** The value was “significantly inhibited”.

**Q.** What about the “apoptosis of liver cells, histological observation” value ([3]; wild type and SMP30 knock-out mice with acute liver injury) of the same molecule?
**A.** The value was “inhibition of apoptosis of liver cells was observed”.

**Q.** What about the “SMP30 expression (immunoblotting)” value [4] of the same molecule?
**A.** The value was “high”.

**Q.** What about the “SMP30 expression (immunohistochemistry)” value [5] of the same molecule?
**A.** Its value is “higher; also recorded: more strongly expressed”.

**Q.** What about the “P-smad3 expression (immunoblotting)” value [6] of the same molecule?
**A.** Its value is “inhibited”.
